Laboratory results: patent US20070111265A1, “Ligands for mineralocorticoid receptor (MR) and methods for screening for or designing MR ligands” (Van Andel Research Institute, priority 2005, published 2007)
Changes are numbered by the printed parent chain. In names and notes the source's numbering stands. Each block holds one molecule with its values, some of them ahead of it.

How the values were obtained:
VP16-MR LBD = target: T1, VP16-MR LBD (Homo sapiens, UniProt P08235); experiment: Mammalian two hybrid assay, pG5Luc reporter; format: cell-based; settings: 10 nM corticosterone
T1 construct: expressed in transfected cells; host or cells: Cos-7
T1 sequence (P08235 727-984): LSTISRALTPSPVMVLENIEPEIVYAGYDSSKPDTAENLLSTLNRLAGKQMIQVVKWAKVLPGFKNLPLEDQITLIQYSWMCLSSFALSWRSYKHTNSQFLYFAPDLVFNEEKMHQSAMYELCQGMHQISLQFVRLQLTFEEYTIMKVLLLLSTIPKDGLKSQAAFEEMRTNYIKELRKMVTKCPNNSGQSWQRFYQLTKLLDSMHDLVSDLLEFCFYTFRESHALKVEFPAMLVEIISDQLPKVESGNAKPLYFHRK
Protocol: (C) Mammalian two-hybrid interaction of SRC1 with MR. GAL4-DBD were fused with the SRC1-4 motif (SRC1-4, residues 1240-1441) and two mutated forms of SRC1-4 [SRC1-4(E1441K), corresponding to E+7K mutation of the SRC1-4 motif, and SRC1-M4 (L1438A/L1439A), corresponding to the LXXAA mutation of the SRC1-4 motif], respectively. VP16 were fused with MR LBD and MR LBD (K782E). The cells were cotransfected with GAL4 and VP16 fusion constructs and pG5Luc reporter. The cells were treated with 10 nM corticosterone.
Cos-7 cells were maintained in DMEM containing 10% fetal bovine serum (FBS) and were transiently transfected using Lipofectamine 2000 (Invitrogen). 24-Well plates were plated 24 hr prior to transfection (5×10^4 cells per well). Cells were transfected in Opti-MEM with 400 ng of MMTV-Luc reporter plasmid and 400 ng of receptor expression vector (pRS vector) encoding full-length GR and MR respectively (ATCC). […] For cotransfection of MR and SRC1, 50 ng Gal4-MR LBD was transfected with 200 ng pG5Luc and various amounts of PCR3.1-SRC1 as indicated in the figure legend. 18 hours after transfection, steroids were added in DMEM supplemented with 5% Charcoal/Dextran treated FBS (Hyclone). Cells were harvested 24 hours later for luciferase assays. Luciferase data were normalized to Renilla activity as an internal control. […]

[1] = target: T2, purified MR/corticosterone complex (MR LBD C808S) (Homo sapiens, UniProt P08235, C808S); experiment: AlphaScreen peptide competition (IC50) of coactivator LXXLL motifs; format: binding
T2 construct: made in house; host or cells: E. coli BL21DE3 (pET24a)
T2 sequence (P08235 727-984 C808S): T1 sequence (P08235 727-984) with C82S
Source text: (D) Binding affinity of various coactivator LXXLL motifs to the purified MR/corticosterone complex as determined by IC50 values from peptide competition experiments using AlphaScreen assays. The numbering scheme of the LXXLL motifs is shown on the top of the sequences.
SRC2-(2+3) and […] SRC2 protein fragments containing 2nd and 3rd LXXLL motifs. The 2nd LXXLL motif of SRC2 was mutated to LXXAA in SRC2-(M2+3).
(G) Binding affinity of PGC1α-(1+2), PGC1α-1 and PGC1α-2 to the purified MR/corticosterone complex as determined by IC50 values from peptide competition experiments.
The fusion protein contains a His6-TAG ([…]) at the N terminus and a thrombin protease site between GST and the MR LBD. BL21DE3 cells transformed with this expression plasmid were grown in LB broth at 16° C. to an OD600 of ˜1 and induced with 0.1 mM IPTG and 50 μM corticosterone. Cells were harvested, resuspended in 400 ml extract buffer (50 mM Tris[pH8.0], 150 mM NaCl, 2 M Urea, 10% glycerol) per 24 liters of cells, and passed three times through a French Press with pressure set at […]. […] Both human PGC1α (1+2) (residues 1-220) and SRC2-(2+3) (residues 563-763) were expressed as a 6×His-GST fusion protein from the expression vector pET24a (Novagen). […]
The binding of various peptide motifs to MR was determined by AlphaScreen assays using a hexahistidine detection kit from Perkin-Elmer. […]

interaction with MR LBD (VP16-MR LBD): abolished the interaction
B1: SRC1-4M: GAL4-DBD SRC1-4 with LXXAA mutation of the SRC1-4 motif (protein)
chain: QGEANFAPSLSPGSSMVPMPIPPPQSSLLQQTPPASGYQSPDMKAWQQGAIGNNNVFSQAVQNQPTPAQPGVYNNMSITVSMAGGNTNVQNMNPMMAQMQMSSLQMPGMNTVCPEQINDPALRHTGLYCNQLSSTDLLKTEADGTQQVQQVQVFADVQCTVNLVGGDPYLNQPGPLGTQKPTSGPQTPQAQQKSLLQQAATE
modifications: left off: large carriers; small tags and cut ends
notes: GAL4-DBD SRC1-4 with LXXAA mutation of the SRC1-4 motif

interaction with MR LBD (VP16-MR LBD): failed to interact
B2: SRC1-4 E1441K: GAL4-DBD SRC1-4 with E+7K mutation of the SRC1-4 motif (protein)
chain: B1 chain with A199L, A200L, E202K
modifications: left off: large carriers; small tags and cut ends
notes: GAL4-DBD SRC1-4 with E+7K mutation of the SRC1-4 motif

The next lines start with the molecule.

B3: SRC2-(M2+3): SRC2 fragment in which the 2nd LXXLL motif was mutated to LXXAA (protein)
chain: QNSPVNMNPPPLSKMGSLDSKDCFGLYGEPSEGTTGQAESSCHPGEQKETNDPNLPPAVSSERADGQSRLHDSKGQTKLLQLLTTKSDQMEPSPLASSLSDTNKDSTGSLPGSGSTHGTSLKEKHKILHRAAQDSSSPVDLAKLTAEATGKDLSQESSSTAPGSEVTIKQEPVSPKKKENALLRYLLDKDDTKDIGLPEIT
modifications: left off: small tags and cut ends; a dimerising Fc or GST
notes: SRC2 fragment in which the 2nd LXXLL motif was mutated to LXXAA
decrease of binding affinity versus SRC2-(2+3) ([1]; second LXXLL motif mutated): more than 10 fold

B4: PGC1α-(1+2): purified human PGC1α fragment (residues 1-220) containing both LXXLL motifs (protein)
chain: MAWDMCNQDSESVWSDIECAALVGEDQPLCPDLPELDLSELDVNDLDTDSFLGGLKWCSDQSEIISNQYNNEPSNIFEKIDEENEANLLAVLTETLDSLPVDEDGLPSFDALTDGDVTTDNEASPSSMPDGTPPPQEAEEPSLLKKLLLAPANTQLSYNECSGLSTQNHANHNHRIRTNPAIVKTENSWSNKAKSICQQQKPQRRPCSELLKYLTTNDDP
modifications: left off: small tags and cut ends; a dimerising Fc or GST
notes: purified human PGC1α fragment (residues 1-220) containing both LXXLL motifs
binding affinity to MR ([1]; compared with single motifs, FIG. 3G): much higher affinity than either motif alone
